Results on two molecules are retold here after PMC8887132.

The target in this data set is T1, YTHDC2 YTH domain WT (Mus musculus, UniProt B2RR83 1353-1436).
T1 sequence: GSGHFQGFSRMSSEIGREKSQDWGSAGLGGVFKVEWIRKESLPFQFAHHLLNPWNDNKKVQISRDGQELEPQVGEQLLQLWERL
In words: fluorescence anisotropy. (Fluorescence polarisation rises when a labelled molecule tumbles more slowly, as on binding a larger partner.)

B1: unmodified RNA probe (ssRNA)
RNA: CCGGACUGU
Broadly, the Kd is the equilibrium constant for the complex coming apart. Read a low Kd as higher affinity. Regarding B1, the affinity, expressed as Kd, was 54 ± 26 µM.

B2: m6A-modified RNA probe (ssRNA)
RNA: CCGGACUGU
modifications: m6A at position 5
B2 returned a Kd of 4.1 ± 1.4 µM.
